From patent US20200347139A1 (INHIBRX BIOSCIENCES, published 2020)

Legend:
[1] = biological target: T1, mFc-CLEC12a-ECD (human); test: BLI, mFc-CLEC12a-ECD captured on anti-mFc sensors, 100 nM sdAb as first sdAb
T1 construct: It was immobilized on anti-mFc capture sensors for BLI; also called CLEC12a antigen
T1 chain: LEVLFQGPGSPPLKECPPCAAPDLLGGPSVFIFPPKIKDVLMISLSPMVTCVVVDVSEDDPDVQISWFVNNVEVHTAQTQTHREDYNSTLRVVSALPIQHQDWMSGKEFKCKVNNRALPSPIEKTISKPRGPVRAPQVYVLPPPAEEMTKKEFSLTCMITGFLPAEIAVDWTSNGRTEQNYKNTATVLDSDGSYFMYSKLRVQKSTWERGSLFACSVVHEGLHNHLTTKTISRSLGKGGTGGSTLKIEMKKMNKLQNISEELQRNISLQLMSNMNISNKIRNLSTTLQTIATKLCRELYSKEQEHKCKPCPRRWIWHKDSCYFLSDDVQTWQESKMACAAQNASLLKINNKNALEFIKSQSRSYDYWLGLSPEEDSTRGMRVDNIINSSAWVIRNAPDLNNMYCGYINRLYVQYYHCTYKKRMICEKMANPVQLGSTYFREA
Method: The epitopes of single domain antibodies (sdAbs) that comprise VHH domains that bind CLEC12a were compared using Bio-Layer Interferometry. 7 μg/mL of mFc-CLEC12a-ECD (SEQ ID NO: 87) was immobilized on anti-mFc coated capture sensors. 100 nM of one sdAb was then loaded onto the CLEC12a antigen and allowed to come to equilibrium. The sensors were then transferred into 100 nM of a second sdAb.

[2] = biological target: T2, human CLEC12a expressed on transiently transfected HEK 293 cells (human, UniProt Q5QGZ9 1-265); test: flow cytometry on HEK 293 cells transfected with human CLEC12a; apparent Kd, one-site fit
T2 construct: also called CLL-1; CLL1
T2 sequence: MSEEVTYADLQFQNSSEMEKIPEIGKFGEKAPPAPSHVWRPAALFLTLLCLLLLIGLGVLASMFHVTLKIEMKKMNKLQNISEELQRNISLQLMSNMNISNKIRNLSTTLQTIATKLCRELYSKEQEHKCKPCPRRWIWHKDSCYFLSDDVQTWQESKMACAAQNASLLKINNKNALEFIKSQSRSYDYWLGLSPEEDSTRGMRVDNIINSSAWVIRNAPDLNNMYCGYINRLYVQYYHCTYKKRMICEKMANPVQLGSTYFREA
Method: Binding of sdAbs to human CLEC12a was assessed by flow cytometry. […] HEK 293 cells were transiently transfected with a plasmid encoding CLEC12a (UniProt Accession No. Q5QGZ9.3; SEQ ID NO: 1) and used as the positive cell line, and untransfected HEK 293 cells were used as CLEC12a-negative cells. Each cell type was plated at 30,000 cells/well in FACS buffer (PBS 1% BSA, 0.1% NaN₃ pH 7.4) on a 96-well round-bottom plate. The sdAbs were diluted in FACS buffer in a 3-fold, 11 point serial dilution. The sdAb dilutions were added to the plated cells, and assay plates were incubated for 30 minutes at 4° C. After washing twice in 150 μL of FACS buffer, cells in each well were resuspended in 100 μL of 1:2000 Alexa Fluor 647-conjugated Anti-Human IgG secondary diluted in FACS buffer and incubated at 4° C. for 30 minutes. The cells were washed twice more, then bound antibody was detected by flow cytometry.
Flow cytometric analysis was performed on an Intellicyte iQue Plus and fluorescence was plotted as median fluorescence intensity. The apparent affinity (Kd, nM) was determined using one site binding non-linear regression in PRISM graph software.

B1: hzMB11v13 sdAb (VHH hzMB11v13 fused to human IgG1 xELL Fc) (Fc fusion)
chain: EVQLVESGGGEVQPGGSLRLSCAASGFLFSIYDMNWYRQAPGKEREWVAGITNNGYSTAYAESVKGRFTISRDNAKNTIYLQMSSLRAEDTAVYYCHADLTKAYDVEYAWGQGTLVTVDKTHTCPPCPAPGGPSVFLFPPKPKDTLMISRTPEVTCVVVDVSHEDPEVKFNWYVDGVEVHNAKTKPREEQYNSTYRVVSVLTVLHQDWLNGKEYKCKVSNKALPAPIEKTISKAKGQPREPQVYTLPPSRDELTKNQVSLTCLVKGFYPSDIAVEWESNGQPENNYKTTPPVLDSDGSFFLYSKLTVDKSRWQQGNVFSCSVMHEALHNHYTQKSLSLSPGK
notes: Humanized version of MB11; No linker is stated; also called hzMB11v13-IgG1
With B1 the binding result [1] was “binds” and the Kd [2] was 0.3 nM.
